Laboratory results as given in patent US6866997, “Nucleic acid binding proteins” (Gendaq Limited).

Biological target: Zif268 DNA-binding domain (UniProt P08046 P08046:333-421)
Assay: apparent; text states optimised peptide Kd equals that of wild-type Zif268; curve only in FIG. 7

B1: Zif268 consensus site (dsDNA)
DNA 1: GCGTGGGCG
DNA 2: CGCCCACGC
Kd: 3 nM
